Laboratory results taken from publication PMC6739308 (Scientific Reports, 2019).

Target: T1, GST-p53 fusion protein (UniProt P04637 1-393)
T1 construct: p53 fused to GST
Experiment: pull-down; 10 μl GST beads bound with 2 μg of GST or GST-p53, purified Flag-tagged SMG7 proteins in solution; binding buffer BC100 with 1 μg/μl BSA, overnight at 4 °C, five washes, western blot
Conditions: both partners purified

T1 sequence (P04637 whole entry, the tested form may be a part): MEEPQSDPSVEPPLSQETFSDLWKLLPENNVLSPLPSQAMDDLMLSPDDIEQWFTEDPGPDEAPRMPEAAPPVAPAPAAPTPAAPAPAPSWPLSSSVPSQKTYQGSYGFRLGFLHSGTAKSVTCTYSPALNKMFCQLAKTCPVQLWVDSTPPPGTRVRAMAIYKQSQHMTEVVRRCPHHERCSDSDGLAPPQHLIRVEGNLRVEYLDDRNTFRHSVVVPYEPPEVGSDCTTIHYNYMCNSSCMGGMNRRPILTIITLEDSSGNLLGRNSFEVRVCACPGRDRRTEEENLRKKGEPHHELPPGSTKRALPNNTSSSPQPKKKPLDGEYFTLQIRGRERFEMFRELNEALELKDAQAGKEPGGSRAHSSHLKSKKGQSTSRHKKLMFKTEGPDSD

B1: purified FH-SMG7 C-terminal fragment 815–1091aa (domain or fragment, UniProt Q92540-2 815-1091, looked up)
chain: PSEVKVPEFYWDSSYSMADNRSVMAQQANIDRRGKRSPGVFRPEQDPVPRMPFEKSLLEKPSELMSHSSSFLSLTGFSLNQERYPNNSMFNEVYGKNLTSSSKAELSPSMAPQETSLYSLFEGTPWSPSLPASSDHSTPASQSPHSSNPSSLPSSPPTHNHNSVPFSNFGPIGTPDNRDRRTADRWKTDKPAMGGFGIDYLSATSSSESSWHQASTPSGTWTGHGPSMEDSSAVLMESLKSIWSSSMMHPGPSALEQLLMQQKQKQQRGQGTMNPPH
notes: numbers count on a form of 1091 residues; source: purified; not shown: Flag, N-terminal, kept; HA, N-terminal, kept
- binding result: binds
